Patent US20250313637A1 (DREN BIO MANAGEMENT, published 2025)
One block for each binder: values may come before it.

What was measured:
[1] = target: T1, human Dectin-1 expressed by HEK-Blue hDectin-1-a cells (human, UniProt Q9BXN2 1-247); assay: cell-based or functional assay
T1 sequence: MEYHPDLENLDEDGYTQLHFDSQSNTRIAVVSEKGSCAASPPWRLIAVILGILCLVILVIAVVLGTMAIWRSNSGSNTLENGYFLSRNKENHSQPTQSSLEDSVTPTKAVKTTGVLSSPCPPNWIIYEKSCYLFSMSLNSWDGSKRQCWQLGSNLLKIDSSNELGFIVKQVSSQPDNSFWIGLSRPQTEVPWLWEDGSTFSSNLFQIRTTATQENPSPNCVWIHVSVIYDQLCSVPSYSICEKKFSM

[2] = target: T2, CD20 expressed on Raji cells (UniProt P11836 1-297, limits assumed); assay: flow cytometry on CD20-expressing Raji cells
T2 construct: whole, on cells; also called CD20-expressing Raji cells; CD20-expressing B cell lymphoma Raji cell line
T2 sequence (looked up): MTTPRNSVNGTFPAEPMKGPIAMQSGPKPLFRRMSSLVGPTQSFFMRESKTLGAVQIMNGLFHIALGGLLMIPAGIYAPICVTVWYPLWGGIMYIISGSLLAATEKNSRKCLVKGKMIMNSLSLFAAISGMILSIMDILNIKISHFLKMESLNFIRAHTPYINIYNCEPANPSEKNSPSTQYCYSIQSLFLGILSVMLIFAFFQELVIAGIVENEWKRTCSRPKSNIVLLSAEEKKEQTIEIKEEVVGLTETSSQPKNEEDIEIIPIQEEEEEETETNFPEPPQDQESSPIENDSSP
Procedure: To evaluate the effect of the 2M24xCD20 bispecific antibody on cells, its binding affinity for cells expressing Dectin-1 or CD20 was measured. Two different formats were used to drive heavy:light chain pairing and bispecific antibody assembly: the DuetMab format with engineered disulfide bonds (see Mazor, Y. et al. (2015) MAbs 7:377-389) (“2M24xCD20 hG1 Duet”) and the M-Fab format described herein (see, e.g., FIG. 3) (“2M24xCD20 hG1M”), as compared to monospecific anti-CD20 with hG1 Fc. Binding of the bispecific 2M24xCD20 antibodies to Dectin-1-expressing HEK293 cells was assessed by flow cytometry (FIG. 7A). Both M-Fab and DuetMab formats were able to bind cells expressing Dectin-1 with similar affinities. Binding of the bispecific 2M24xCD20 antibodies to cells expressing CD20 was also assessed by flow cytometry, using the CD20-expressing B cell lymphoma Raji cell line (FIG. 7B). Both M-Fab and DuetMab were able to bind cells expressing CD20 with similar affinities, but with reduced affinity compared to the parental monospecific anti-CD20 antibody.

SEAP reporter assay EC50 (OD630), HEK-Blue hDectin-1-a cells co-cultured with CD20-expressing Raji cells, Exp. 1 [1]: 2.63 nM
SEAP reporter assay EC50 (OD630), HEK-Blue hDectin-1-a cells co-cultured with CD20-expressing Raji cells, Exp. 2 [1]: 3.19 nM
binding result [2]: binds
B1: DuetMab 2M24xCD20 bispecific antibody (2M24xCD20 hG1 Duet) (bispecific antibody, V domains shown)
VH 1: QVQLVQSGAEVKKPGASVKVSCKSSGYTFTDYYIHWVRQAPGQGLEWMGWINPNSGDTNYAQKFQGRITMTRDTSISTAYLELSRLRSDDTAVFYCARNSGSYSFGYWGQGTLVTVSS
VL 1: DIQMTQSPSSVSASVGDRVTITCRASQGISSWLAWYQQKPGKAPKLLIFGASSLQSGVPSRFSGSGSGTDFTLTVSSLQPEDFATYYCQQAYSFPFTFGPGTKVDIE
VH 2: QVQLQQPGAELVKPGASVKMSCKASGYTFTSYNMHWVKQTPGRGLEWIGAIYPGNGDTSYNQKFKGKATLTADKSSSTAYMQLSSLTSEDSAVYYCARSTYYGGDWYFNVWGAGTTVTVSA
VL 2: QIVLSQSPAILSASPGEKVTMTCRASSSVSYIHWFQQKPGSSPKPWIYATSNLASGVPVRFSGSGSGTSYSLTISRVEAEDAATYYCQQWTSNPPTFGGGTKLEIK
notes: Human IgG1 in the DuetMab format with engineered disulfide bonds (Mazor 2015)

SEAP reporter assay EC50 (OD630), HEK-Blue hDectin-1-a cells co-cultured with CD20-expressing Raji cells, Exp. 1 [1]: 3.65 nM
SEAP reporter assay EC50 (OD630), HEK-Blue hDectin-1-a cells co-cultured with CD20-expressing Raji cells, Exp. 2 [1]: 3.53 nM
B2: M-Fab 2M24xCD20 bispecific antibody (2M24xCD20 hG1M) (bispecific antibody, human IgG1, kappa)
heavy 1: not shown
light 1: DIQMTQSPSSVSASVGDRVTITCRASQGISSWLAWYQQKPGKAPKLLIFGASSLQSGVPSRFSGSGSGTDFTLTVSSLQPEDFATYYCQQAYSFPFTFGPGTKVDIERTVALHRPDVYLLPPAREQLNLRESATIWCLVTGFSPADVFVQWMQRGQPLSPEKYVTSAPMPEPQAPGRYFAHSILTVSEEEWNTGETYTCVVAHEALPNRVTERTVDKSTGEC
heavy 2: QVQLQQPGAELVKPGASVKMSCKASGYTFTSYNMHWVKQTPGRGLEWIGAIYPGNGDTSYNQKFKGKATLTADKSSSTAYMQLSSLTSEDSAVYYCARSTYYGGDWYFNVWGAGTTVTVSAASTKGPSVFPLAPSSKSTSGGTAALGCLVKDYFPEPVTVSWNSGALTSGVHTFPAVLQSSGLYSLSSVVTVPSSSLGTQTYICNVNHKPSNTKVDKKVEPKSCDKTHTCPPCPAPELLGGPSVFLFPPKPKDTLMISRTPEVTCVVVDVSHEDPEVKFNWYVDGVEVHNAKTKPREEQYNSTYRVVSVLTVLHQDWLNGKEYKCKVSNKALPAPIEKTISKAKGQPREPQVYTLPPSREEMTKNQVSLSCAVKGFYPSDIAVEWESNGQPENNYKTTPPVLDSDGSFFLVSKLTVDKSRWQQGNVFSCSVMHEALHNRFTQKSLSLSPG
light 2: QIVLSQSPAILSASPGEKVTMTCRASSSVSYIHWFQQKPGSSPKPWIYATSNLASGVPVRFSGSGSGTSYSLTISRVEAEDAATYYCQQWTSNPPTFGGGTKLEIKRTVAAPSVFIFPPSDEQLKSGTASVVCLLNNFYPREAKVQWKVDNALQSGNSQESVTEQDSKDSTYSLSSTLTLSKADYEKHKVYACEVTHQGLSSPVTKSFNRGEC

SEAP reporter assay EC50, in presence of CHO cells (~2 million copies/cell) [1]: 0.13 nM
SEAP reporter assay EC50, in presence of H2170 cells expressing Trop2 (~136,000 copies/cell) [1]: 0.17 nM
SEAP reporter assay EC50, in presence of HeLa cells expressing Trop2 (~25,500 copies/cell) [1]: 0.37 nM
SEAP reporter assay, fold shift in EC50 against traditional bispecific, CHO cells [1]: 9.8 fold
SEAP reporter assay, fold shift in EC50 against traditional bispecific, H2170 cells [1]: 47.6 fold
SEAP reporter assay, fold shift in EC50 against traditional bispecific, HeLa cells [1]: 4.7 fold
B3: 2+1 M-Fab (2M24xTrop2 hIgG1) bispecific antibody (bispecific antibody)
heavy 1: not shown
light 1: not shown
heavy 2: not shown
light 2: DIVLTQSPGTLSLSPGERATLSCRASQSVSSSYLAWYQQKPGQAPRLLISGASSRATGIPDRFSGSGSGTDFTLTISRLEPEDFAVYYCQQYGSSHRTFGQGTKVEIKRTVALHRPDVYLLPPAREQLNLRESATIWCLVTGFSPADVFVQWMQRGQPLSPEKYVTSAPMPEPQAPGRYFAHSILTVSEEEWNTGETYTCVVAHEALPNRVTERTVDKSTGES
